Experiments:
[1] = substrate: O=C(O)c1ccc(C(=O)OCCO)cc1; assay: purified protein, by the assay type; conditions: other: MHET 10-250 μM, 5 nM enzyme, pH 7.5, 30° C., substrate inhibition model
[2] = substrate: O=C(O)c1ccc(C(=O)OCCO)cc1; assay: Michaelis-Menten kinetics of MHETase and variants (substrate inhibition model); type: biochemical, Comamonas thiooxydans; conditions: other: MHET 10-250 μM, 5 nM enzyme, pH 7.5, 30° C.

B1: Ideonella sakaiensis 201-F6 MHETase (Is MHETase), wild type, Genbank GAP38911.1, C-terminal His tag (DNA SEQ ID NO: 1) (Pseudideonella sakaiensis) (protein)
chain: CAGGGSTPLPLPQQQPPQQEPPPPPVPLASRAACEALKDGNGDMVWPNAATVVEVAAWRDAAPATASAAALPEHCEVSGAIAKRTGIDGYPYEIKFRLRMPAEWNGRFFMEGGSGTNGSLSAATGSIGGGQIASALSRNFATIATDGGHDNAVNDNPDALGTVAFGLDPQARLDMGYNSYDQVTQAGKAAVARFYGRAADKSYFIGCSEGGREGMMLSQRFPSHYDGIVAGAPGYQLPKAGISGAWTTQSLAPAAVGLDAQGVPLINKSFSDADLHLLSQAILGTCDALDGLADGIVDNYRACQAAFDPATAANPANGQALQCVGAKTADCLSPVQVTAIKRAMAGPVNSAGTPLYNRWAWDAGMSGLSGTTYNQGWRSWWLGSFNSSANNAQRVSGFSARSWLVDFATPPEPMPMTQVAARMMKFDFDIDPLKIWATSGQFTQSSMDWHGATSTDLAAFRDRGGKMILYHGMSDAAFSALDTADYYERLGAAMPGAAGFARLFLVPGMNHCSGGPGTDRFDMLTPLVAWVERGEAPDQISAWSGTPGYFGVAARTRPLCPYPQIARYKGSGDINTEANFACAAPP
- Km [1]: 23.17 ± 1.65 µM

B2: Comamonas thiooxydans MHETase (putative MHETase, Genbank WP_080747404.1), C-terminal His tag (Comamonas thiooxydans) (protein)
chain: HMFVRNADRAKNCMRAPLRVFPLKDTFSAQCANVSVWITSSVPPLRERHMDRRVTRRDLMQTRILLMLIAATGVAACGGDGGSTPAAQNPPLPLASRAACEAFQGNSNSIAWPHRATVVEVATWHEAEPANATAAATPEHCEISGAIARRTGIDGYPYEIKFRLRMPSEWNGRFFMEGGGGTNGSLSAATGSLGGGQTASALSRNFATIATDGGHDNAVNNNPDALGTVAFGMDPQARIDMGYNSYDQVTQAGKAAVAQFYGRAPDKSYFIGCSEGGREGMMLSQRFPSHYDGIVAGAPGYQLPKAGISGAWTTQSLAPAAVGVDAQNVPLINKAFSDVDLHLLSRGILGTCDALDGLSDGIVNDFRACQAAFDPATALNPDTSQPLQCTGAKTPDCLSAAQVTGIKRAMGGPVDSAGAALYNRWAWDPGMSGLNGTSYNQGWRSWWLGSYASSTNNAQRVNGFSARSWLVDFATPPEPMPVTQVAARMMNFNFDTDPPKIRATSGPFTPSSMEWHGATSTNLAAFRDRGGKLMLYHGMSDAAFSALDTADYYERLGAAMPGAAGFARLFLVPGMNHCSGGPGTDRFDMLTPLVAWVERDKAPDQVSAWAGTPGYFGATARTRPLCPYPQIARYKGSGDINAEASFVCVAPLE
- Km [2]: 174.70 ± 4.75 µM
- Vmax [2]: 12.2 µM/min
- kcat/Km [2]: 230000 M⁻¹ s⁻¹

From US20230151340A1, “PLASTIC DEGRADING FUSION PROTEINS AND METHODS OF USING THE SAME” (Alliance for Sustainable Energy, LLC, priority 2020, published 2023)
